Measurements taken from patent publication US20210139542A1.
pKd: −log10 of the molar value. Blank lines part the entries; values can stand above or below the substance they belong to.

Assays:
[1] = biological target: HEWL-Hel-1024 (hen) (UniProt P00698); experiment: BLI, mAb on AHC biosensor, 100 nM antigen
[2] = biological target: HEWL-Hel-1012 (hen) (UniProt P00698); experiment: BLI, mAb on AHC biosensor, 100 nM antigen
[3] = biological target: HEWL-Hel-102 (hen) (UniProt P00698); experiment: BLI, mAb on AHC biosensor, 100 nM antigen
[4] = biological target: HEWL-Hel-104 (hen) (UniProt P00698); experiment: BLI, mAb on AHC biosensor, 100 nM antigen
[5] = biological target: Hen Egg White Lysozyme (HEWL), wild type (hen) (UniProt P00698); experiment: ELISA, HEWL derivative coated, antibody in tenfold dilutions, A450
[6] = biological target: Hen Egg White Lysozyme (HEWL), wild type (hen) (UniProt P00698); experiment: BLI, mAb on AHC biosensor, 100 nM antigen
[7] = biological target: HEWL-Hel-1024 (hen) (UniProt P00698); experiment: BLI, mAb on AHC biosensor, 100 nM antigen, footnote c bounds the value
[8] = biological target: HEWL-Full12 (hen) (UniProt P00698); experiment: as above
[9] = biological target: HEWL-Full24 (hen) (UniProt P00698); experiment: as above
[10] = biological target: HEWL-Hel-1012 (hen) (UniProt P00698); experiment: as above
[11] = biological target: HEWL-Hel-102 (hen) (UniProt P00698); experiment: as above
[12] = biological target: HEWL-Hel-104 (hen) (UniProt P00698); experiment: as above
[13] = biological target: HEWL-Full12 (hen) (UniProt P00698); experiment: BLI, mAb on AHC biosensor, 100 nM antigen, footnote e bounds the value
[14] = biological target: HEWL-Full24 (hen) (UniProt P00698); experiment: as above

Chain of UniProt P00698 (P00698 19-147 limits assumed): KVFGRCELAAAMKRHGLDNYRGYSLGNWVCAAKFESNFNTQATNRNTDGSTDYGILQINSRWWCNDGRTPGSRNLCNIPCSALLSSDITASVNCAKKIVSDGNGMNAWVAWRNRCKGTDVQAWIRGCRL

Substance: HyHEL-10 (antibody)
- pKd [1]: 9.59
- pKd [2]: 10.26
- pKd [3]: 10.17
- pKd [4]: 10.04

- EC50 (read off the curve) [5]: 0.5 nM
- pKd [6]: 8.64
Substance: D11.15 (antibody)

Substance: HyHEL-5 (antibody)
- pKd [6]: 10.74
- pKd [7]: 9.70
- pKd [8]: 9.44
- pKd [9]: 9.77
- pKd [10]: 9.96
- pKd [11]: 9.92
- pKd [12]: 9.85

Substance: D1.3 (antibody)
- pKd [1]: 7.96
- pKd [6]: 9.24
- pKd [13]: 7.57
- pKd [14]: 7.96
